Laboratory results taken from the supplement of paper PMC6757056.
± gives the standard deviation of the averaged measurements.

B1: library; a variant is named by its letters at N, in order (parent)
chain: GCUGUCACCGGUGCUUGGUACGUUAUAUUCAGCCGGUCUGAUGAGUCUNNNNNNAGACGAAACAGC

Assays:
[1] = variants of: B1; experiment: normalized RNA/DNA level without ligand (relative to sTRSVctl = 100) (log10 (% of sTRSVctl)); HEK293T overexpressing SLC46A1; higher = less ribozyme self-cleavage, higher mRNA level; settings: without (6R,S)-folinic acid; ligand present: no
Summary of the method: (§1)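 Library plasmids carrying ribozyme switches linked to mCherry, or to eGFP in some ligand experiments, were transfected into HEK293T at 4 µg per 6-well well, with any ligand added 1 h earlier. Seventy-two hours on, total RNA was extracted with EDTA and reverse-transcribed, amplified, barcoded and sequenced. RNA level was RNA over DNA reads normalized to a spiked-in non-cleaving sequence or to the top sequences, then scaled and log-transformed. The top set was 25 sequences, the transform was ×100 and log10, and sequences needed ≥100 DNA reads.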

[2] = variants of: B1; experiment: normalized RNA/DNA level with ligand (relative to sTRSVctl = 100) (log10 (% of sTRSVctl)); HEK293T overexpressing SLC46A1; ligand concentration (+) RNA-Seq: 6 mM; higher = less ribozyme self-cleavage, higher mRNA level; settings: with (6R,S)-folinic acid; ligand present: yes
Summary of the method: as §1

| Variant | normalized RNA/DNA level without ligand (log10) [1] | normalized RNA/DNA level with ligand (log10) [2] |
| --- | --- | --- |
| UCUAAG | 1.815 ± 0.014 | 2 ± 0.045 |
| CCGUAA | 1.981 ± 0.016 | 1.98 ± 0.032 |
| CCGUAG | 1.93 ± 0.035 | 1.99 ± 0.022 |
| CCGUAC | 1.99 ± 0.019 | 2.014 ± 0.017 |
| CCGUAU | 2.016 ± 0.0098 | 2.022 ± 0.0084 |
| GCUACU | 2.019 ± 0.0099 | 1.98 ± 0.043 |
| GCUACC | 2.06 ± 0.023 | 2.05 ± 0.033 |
| GCUACG | 2.026 ± 0.0068 | 2.065 ± 0.0045 |
| GCUCAG | 1.96 ± 0.0025 | 2.02 ± 0.03 |
| CCGUGG | 2.022 ± 0.02 | 2.06 ± 0.023 |
| CCGUGC | 2.03 ± 0.048 | 1.99 ± 0.041 |
| CCGUGU | 2.039 ± 0.0037 | 2.048 ± 0.0091 |
| CCGUGA | 2.03 ± 0.021 | 2.05 ± 0.037 |
| UCGCGC | 2.046 ± 0.014 | 2.03 ± 0.03 |
| UCGCGA | 2.0026 ± 0.0006 | 2.02 ± 0.068 |
| UCGCGU | 2.033 ± 0.0037 | 2.04 ± 0.032 |
| UCGCGG | 2.067 ± 0.0045 | 2.084 ± 0.02 |
| UCGUAG | 1.8378 ± 0.0006 | 2 ± 0.052 |
| UCGUAU | 1.97 ± 0.029 | 2 ± 0.07 |
| CCGUUG | 1.99 ± 0.024 | 2.04 ± 0.044 |
| CCGUUA | 2.005 ± 0.0026 | 1.97 ± 0.055 |
| CCGUUC | 2.048 ± 0.0038 | 2.03 ± 0.071 |
| CCGUUU | 2.037 ± 0.0047 | 2.013 ± 0.02 |
| ACUAUU | 2.027 ± 0.0052 | 2.02 ± 0.043 |

| Variant | normalized RNA/DNA level without ligand (log10) [1] | normalized RNA/DNA level with ligand (log10) [2] |
| --- | --- | --- |
| ACUAUA | 1.983 ± 0.012 | 2.013 ± 0.0097 |
| ACUAUG | 1.9049 ± 0.00034 | 2.008 ± 0.016 |
| ACUAUC | 2.063 ± 0.0022 | 2.04 ± 0.038 |
| ACGUCG | 2 ± 0.022 | 2.06 ± 0.014 |
| ACGUCU | 2.04 ± 0.028 | 2.025 ± 0.013 |
| ACGUCA | 2.037 ± 0.0081 | 2.027 ± 0.0046 |
| ACGUCC | 2.03 ± 0.023 | 2 ± 0.068 |
| ACGGAC | 2.018 ± 0.015 | 2.01 ± 0.03 |
| ACGGAG | 1.839 ± 0.0062 | 2.029 ± 0.014 |
| ACGGAA | 1.965 ± 0.0049 | 2.024 ± 0.0076 |
| CCUACC | 2.0594 ± 0.00016 | 2.04 ± 0.041 |
| CCUACU | 2.062 ± 0.0069 | 2.04 ± 0.0079 |
| CCUACG | 2.072 ± 0.0081 | 2.0351 ± 0.0014 |
| GCGGCU | 2.0832 ± 0.0008 | 2.05 ± 0.031 |
| GCGGCC | 2.072 ± 0.011 | 2.077 ± 0.02 |
| GCGGCA | 2.071 ± 0.0038 | 2.07 ± 0.048 |
| GCGGCG | 2.07 ± 0.023 | 2.1 ± 0.061 |
| UCGUGU | 1.998 ± 0.0023 | 2.029 ± 0.0088 |
| UCGUGC | 2.074 ± 0.015 | 2.055 ± 0.0071 |
| UCGUGG | 1.947 ± 0.0075 | 2.02 ± 0.041 |
| UCGUGA | 1.955 ± 0.014 | 2.009 ± 0.0081 |
| GCGAUU | 2.032 ± 0.016 | 2.04 ± 0.048 |
| ACUCCA | 2.056 ± 0.0064 | 2.04 ± 0.054 |
| UCUCAA | 1.96 ± 0.0096 | 1.98 ± 0.024 |

| Variant | normalized RNA/DNA level without ligand (log10) [1] | normalized RNA/DNA level with ligand (log10) [2] |
| --- | --- | --- |
| UCUCAG | 1.958 ± 0.012 | 1.98 ± 0.027 |
| UCUCAU | 2.032 ± 0.015 | 2.023 ± 0.011 |
| UCUCAC | 2.098 ± 0.0045 | 2.04 ± 0.035 |
| UCGGUC | 2.09 ± 0.025 | 2.06 ± 0.051 |
| UCGGUA | 1.93 ± 0.029 | 1.985 ± 0.015 |
| GCGUGU | 1.974 ± 0.0053 | 2.04 ± 0.053 |
| GCGUGC | 2.043 ± 0.019 | 2.03 ± 0.038 |
| GCGUGA | 1.999 ± 0.015 | 2.03 ± 0.038 |
| GCGCUG | 2.11 ± 0.022 | 2.1 ± 0.024 |
| GCGCUC | 2.05 ± 0.049 | 2.01 ± 0.043 |
| GCGCUU | 2.053 ± 0.018 | 2.048 ± 0.015 |
| CCGCCC | 2.07 ± 0.025 | 2.04 ± 0.073 |
| CCGCCU | 2.087 ± 0.0066 | 2.08 ± 0.03 |
| CCGCCG | 2.06 ± 0.024 | 2.08 ± 0.03 |
| CCGCCA | 2.0675 ± 0.0011 | 2.04 ± 0.035 |
| UCGGGC | 2.06 ± 0.021 | 2.03 ± 0.055 |
| UCGGGA | 1.937 ± 0.012 | 2.03 ± 0.056 |
| UCGGGG | 1.86 ± 0.027 | 1.99 ± 0.039 |
| UCGGGU | 1.9958 ± 0.001 | 2.03 ± 0.038 |
| ACGUGG | 1.954 ± 0.0043 | 2.05 ± 0.025 |
| ACGUGC | 2.026 ± 0.0053 | 2.02 ± 0.055 |
| ACGUGU | 2.06 ± 0.028 | 2.06 ± 0.024 |
| ACGGUC | 2.088 ± 0.0078 | 2.06 ± 0.036 |
| ACGGUG | 1.924 ± 0.0096 | 2.003 ± 0.013 |

| Variant | normalized RNA/DNA level without ligand (log10) [1] | normalized RNA/DNA level with ligand (log10) [2] |
| --- | --- | --- |
| ACGGUA | 1.9058 ± 0.0011 | 1.95 ± 0.029 |
| UCGCUC | 2.04 ± 0.028 | 2.04 ± 0.059 |
| UCGCUG | 2.01 ± 0.021 | 2.06 ± 0.037 |
| UCGCUA | 2.021 ± 0.015 | 2.07 ± 0.035 |
| UCGCUU | 2.033 ± 0.019 | 2.01 ± 0.081 |
| CCUAGG | 2.05 ± 0.03 | 2.043 ± 0.0025 |
| CCUAGA | 2.05 ± 0.016 | 2.05 ± 0.046 |
| CCUAGU | 2.074 ± 0.0064 | 2.06 ± 0.029 |
| GCGUAU | 2.03 ± 0.026 | 2.06 ± 0.022 |
| CCGUCA | 2.04 ± 0.031 | 2.05 ± 0.038 |
| CCGUCU | 2.04 ± 0.0053 | 2.05 ± 0.061 |
| CCGUCG | 2.02 ± 0.034 | 2.021 ± 0.015 |
| CCGUCC | 2.06 ± 0.021 | 2.06 ± 0.039 |
| CCUAAA | 1.9908 ± 0.0014 | 2.01 ± 0.028 |
| CCUAAC | 2.041 ± 0.0058 | 2.038 ± 0.017 |
| CCGGUC | 2.0714 ± 0.0011 | 2.03 ± 0.069 |
| CCGGUA | 2.01 ± 0.038 | 2.009 ± 0.011 |
| CCGGUG | 2.04 ± 0.04 | 2.051 ± 0.0038 |
| CCGCAA | 1.986 ± 0.018 | 2 ± 0.042 |
| CCGCAU | 2 ± 0.0024 | 2.017 ± 0.018 |
| CCGCAC | 1.997 ± 0.0034 | 1.99 ± 0.029 |
| CCGCAG | 1.97 ± 0.004 | 1.99 ± 0.066 |
| UCUAGC | 2.03 ± 0.024 | 2.02 ± 0.051 |
| UCUAGA | 2.05 ± 0.024 | 2.043 ± 0.0037 |

| Variant | normalized RNA/DNA level without ligand (log10) [1] | normalized RNA/DNA level with ligand (log10) [2] |
| --- | --- | --- |
| UCUAGU | 1.984 ± 0.0028 | 2.04 ± 0.032 |
| UCUAGG | 1.982 ± 0.015 | 2.05 ± 0.026 |
| GCGUCA | 2.06 ± 0.025 | 2.08 ± 0.031 |
| GCGUCC | 2.01 ± 0.0034 | 1.997 ± 0.0077 |
| GCGUCU | 2.064 ± 0.0062 | 2.07 ± 0.034 |
| GCGUCG | 2.042 ± 0.0035 | 2.07 ± 0.035 |
| GCGCCG | 2.059 ± 0.0092 | 2.046 ± 0.0097 |
| GCGCCU | 2.1 ± 0.023 | 2.09 ± 0.047 |
| GCGCCA | 2.08 ± 0.023 | 2.03 ± 0.03 |
| GCGCCC | 2.07 ± 0.023 | 2.04 ± 0.036 |
| UCGUUC | 2.0303 ± 0.002 | 2.01 ± 0.034 |
| UCGUUU | 1.99 ± 0.03 | 2.028 ± 0.0051 |
| UCGUUA | 2.009 ± 0.0058 | 2.04 ± 0.038 |
| GCUCCA | 2.02 ± 0.019 | 2.03 ± 0.037 |
| ACGGGU | 1.989 ± 0.0096 | 2.04 ± 0.034 |
| ACGGGG | 1.997 ± 0.018 | 2.065 ± 0.02 |
| ACGGGC | 2.097 ± 0.0034 | 2.09 ± 0.031 |
| UCGUCU | 2.02 ± 0.035 | 2.04 ± 0.09 |
| UCGUCA | 2.045 ± 0.013 | 2.03 ± 0.045 |
| UCGUCC | 2.064 ± 0.0091 | 2.0551 ± 0.00048 |
